# Source: PMC5349611
# pKd: −log10 of the molar value.
# Legend:
# [1] = biological target: T1, IolR-His6 (Salmonella enterica serovar Typhimurium 14028) (UniProt Q8ZK65); assay: SPR (OneToTwo); settings: EMSA: 100 ng DNA in 1x Tris/borate/EDTA, 20 ul, 45 min, 12% native PAA gel run at 4 C; SPR: streptavidin chip, 30 ul/min, 25 C, 0-330 nM IolR, buffer not in …
# T1 sequence: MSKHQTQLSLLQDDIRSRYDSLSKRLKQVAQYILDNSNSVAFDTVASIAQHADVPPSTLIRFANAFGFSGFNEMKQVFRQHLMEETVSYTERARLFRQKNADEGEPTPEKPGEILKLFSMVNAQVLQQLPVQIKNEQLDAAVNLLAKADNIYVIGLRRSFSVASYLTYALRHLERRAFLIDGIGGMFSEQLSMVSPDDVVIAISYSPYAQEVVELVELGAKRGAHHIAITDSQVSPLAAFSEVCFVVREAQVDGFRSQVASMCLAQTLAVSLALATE
# [2] = system: IolR-His6 (Salmonella enterica serovar Typhimurium 14028); assay: SPR (OneToTwo); settings: EMSA: 100 ng DNA in 1x Tris/borate/EDTA, 20 ul, 45 min, 12% native PAA gel run at 4 C, SPR: streptavidin chip, 30 ul/min, 25 C, 0-330 nM IolR, buffer not in …
# [3] = system: IolR-His6 (Salmonella enterica serovar Typhimurium 14028); assay: SPR (Interaction Map); settings: EMSA: 100 ng DNA in 1x Tris/borate/EDTA, 20 ul, 45 min, 12% native PAA gel run at 4 C, SPR: streptavidin chip, 30 ul/min, 25 C, 0-330 nM IolR, buffer not in …
substance,measurement,setting,value
GGTGTGTCATCAATGGTTGTCTGTTGTGACGAGGAAAGATTTGGAAAAAATTATGATCTATATAGCATTTTTGTTTCATTTGGTGTGGTATAAAAATTCAAATTTCAGGGGGGTTTCGGCACCACA (double strand) [PreiD SPR fragment],pKd,[1],6.49
PiolR SPR fragment,pKd,"[2]; KD1, ka1 1.3e5 M-1s-1, kd1 5.5e-2 s-1",6.37
same,pKd,"[2]; KD2, ka2 2.4e5 M-1s-1, kd2 1.4e-3 s-1",8.22
PreiD SPR fragment,pKd,"[2]; KD1, ka1 1.5e5 M-1s-1, kd1 4.9e-2 s-1",6.49
same,pKd,"[2]; KD2, ka2 2.1e5 M-1s-1, kd2 1.4e-3 s-1",8.18
PiolT1 SPR fragment,pKd,"[3]; high-affinity component, peak weight 40.5%, ka 6.95e5 M-1s-1, kd 5.78e-4 s-1",9.09
same,pKd,"[3]; low-affinity component, peak weight 57.6%, ka 1.05e5 M-1s-1, kd 3.2e-2 s-1",6.51
TTGCTCAGAACCCAGCCCGCCAGCAAATTCTGTACTGAAGGTAACCACAGCGCAATTTGAATGTTGTTAACTGTATGTTCAGTTCATTTGTGCTAATATGGTTATTTACGAAATTTTCGTTCTATTAGAGTATCATGCATGTCTAAACATCAAACTCAACTTTCCTTACTGCAGGATGATATCCGCAG (double strand) [PiolR SPR fragment],pKd,[1],6.37
